Laboratory results taken from patent publication US20060024724A1.

Target: oncofetal fibronectin (human) (UniProt P02751)
Test: lateral-flow sandwich test strip (mobile FDC-6 conjugate, goat polyclonal anti-fibronectin capture), TLiIQ reflectance reader, at 50 ng/ml oncofetal fibronectin

Chain of UniProt P02751 (P02751 32-2477): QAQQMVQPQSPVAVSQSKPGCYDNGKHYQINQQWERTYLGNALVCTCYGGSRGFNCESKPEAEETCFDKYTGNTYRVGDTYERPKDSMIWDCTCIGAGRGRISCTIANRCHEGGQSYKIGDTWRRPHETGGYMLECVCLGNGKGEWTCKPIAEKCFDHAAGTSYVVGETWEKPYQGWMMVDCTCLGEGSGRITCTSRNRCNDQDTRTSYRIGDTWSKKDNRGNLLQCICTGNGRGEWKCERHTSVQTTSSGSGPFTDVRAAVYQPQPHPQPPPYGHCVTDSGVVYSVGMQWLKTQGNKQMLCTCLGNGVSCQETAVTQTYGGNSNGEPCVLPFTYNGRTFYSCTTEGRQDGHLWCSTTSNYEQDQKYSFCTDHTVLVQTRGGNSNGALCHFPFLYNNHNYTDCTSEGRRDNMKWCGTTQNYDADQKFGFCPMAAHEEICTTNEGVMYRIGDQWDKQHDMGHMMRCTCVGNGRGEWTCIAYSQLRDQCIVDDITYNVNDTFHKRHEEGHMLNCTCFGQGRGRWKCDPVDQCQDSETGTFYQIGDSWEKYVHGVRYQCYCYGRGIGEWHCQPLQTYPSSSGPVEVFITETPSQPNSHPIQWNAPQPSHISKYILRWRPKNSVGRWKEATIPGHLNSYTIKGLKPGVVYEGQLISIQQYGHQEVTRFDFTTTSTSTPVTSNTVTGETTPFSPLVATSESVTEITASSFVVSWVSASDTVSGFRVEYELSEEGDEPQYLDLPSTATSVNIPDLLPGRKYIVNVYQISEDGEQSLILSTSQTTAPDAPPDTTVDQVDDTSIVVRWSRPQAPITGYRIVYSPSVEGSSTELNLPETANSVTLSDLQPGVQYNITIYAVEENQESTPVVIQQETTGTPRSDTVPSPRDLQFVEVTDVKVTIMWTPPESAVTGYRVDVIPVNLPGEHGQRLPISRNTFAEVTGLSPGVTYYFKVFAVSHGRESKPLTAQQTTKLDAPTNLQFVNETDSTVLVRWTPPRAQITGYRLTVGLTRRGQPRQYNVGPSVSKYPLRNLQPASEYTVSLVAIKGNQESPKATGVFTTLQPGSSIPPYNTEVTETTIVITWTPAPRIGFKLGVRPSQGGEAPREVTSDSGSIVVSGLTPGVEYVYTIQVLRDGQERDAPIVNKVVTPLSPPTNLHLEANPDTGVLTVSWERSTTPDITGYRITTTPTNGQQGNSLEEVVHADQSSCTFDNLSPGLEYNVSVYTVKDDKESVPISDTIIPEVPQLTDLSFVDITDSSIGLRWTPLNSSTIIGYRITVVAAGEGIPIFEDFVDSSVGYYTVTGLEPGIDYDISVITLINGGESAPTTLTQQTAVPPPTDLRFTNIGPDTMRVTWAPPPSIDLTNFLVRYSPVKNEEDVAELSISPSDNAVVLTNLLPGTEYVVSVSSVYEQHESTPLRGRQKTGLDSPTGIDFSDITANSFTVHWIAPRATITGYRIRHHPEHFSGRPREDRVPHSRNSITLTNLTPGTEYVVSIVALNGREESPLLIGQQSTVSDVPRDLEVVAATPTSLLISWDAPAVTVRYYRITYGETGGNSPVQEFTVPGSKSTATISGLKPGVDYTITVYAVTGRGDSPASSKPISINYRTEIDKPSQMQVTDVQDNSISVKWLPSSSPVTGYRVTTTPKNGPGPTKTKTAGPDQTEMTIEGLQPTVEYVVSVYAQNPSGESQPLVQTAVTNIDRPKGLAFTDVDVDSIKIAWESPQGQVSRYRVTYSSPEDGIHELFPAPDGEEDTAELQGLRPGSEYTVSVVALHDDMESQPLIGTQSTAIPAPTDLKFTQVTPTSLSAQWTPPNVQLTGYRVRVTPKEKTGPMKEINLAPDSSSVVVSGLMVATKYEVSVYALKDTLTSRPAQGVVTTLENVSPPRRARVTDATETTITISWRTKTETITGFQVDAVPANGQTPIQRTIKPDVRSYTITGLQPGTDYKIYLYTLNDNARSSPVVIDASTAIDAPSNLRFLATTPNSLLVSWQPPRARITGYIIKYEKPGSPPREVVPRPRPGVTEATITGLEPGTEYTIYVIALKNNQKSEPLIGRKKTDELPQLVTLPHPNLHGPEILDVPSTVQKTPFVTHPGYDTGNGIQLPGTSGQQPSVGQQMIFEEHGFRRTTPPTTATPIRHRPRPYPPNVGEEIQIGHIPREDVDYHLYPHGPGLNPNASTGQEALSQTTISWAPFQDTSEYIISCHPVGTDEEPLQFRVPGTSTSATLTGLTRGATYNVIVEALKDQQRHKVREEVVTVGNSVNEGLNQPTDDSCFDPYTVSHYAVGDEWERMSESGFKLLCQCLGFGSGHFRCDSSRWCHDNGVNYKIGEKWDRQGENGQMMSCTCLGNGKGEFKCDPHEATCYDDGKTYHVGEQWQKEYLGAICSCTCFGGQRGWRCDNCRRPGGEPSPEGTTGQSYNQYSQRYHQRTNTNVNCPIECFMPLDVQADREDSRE

Work on “FDC-6 monoclonal antibody (produced by hybridoma ATCC HB 9018)” yielded a reflectance signal of 0.315.
